First the molecules themselves.
B1: KAT8 regulatory NSL complex subunit 1 (Homo sapiens), Q7Z3B3 (parent)
chain: MAAMAPALTDAAAEAHHIRFKLAPPSSTLSPGSAENNGNANILIAANGTKRKAIAAEDPSLDFRNNPTKEDLGKLQPLVASYLCSDVTSVPSKESLKLQGVFSKQTVLKSHPLLSQSYELRAELLGRQPVLEFSLENLRTMNTSGQTALPQAPVNGLAKKLTKSSTHSDHDNSTSLNGGKRALTSSALHGGEMGGSESGDLKGGMTNCTLPHRSLDVEHTTLYSNNSTANKSSVNSMEQPALQGSSRLSPGTDSSSNLGGVKLEGKKSPLSSILFSALDSDTRITALLRRQADIESRARRLQKRLQVVQAKQVERHIQHQLGGFLEKTLSKLPNLESLRPRSQLMLTRKAEAALRKAASETTTSEGLSNFLKSNSISEELERFTASGIANLRCSEQAFDSDVTDSSSGGESDIEEEELTRADPEQRHVPLRRRSEWKWAADRAAIVSRWNWLQAHVSDLEYRIRQQTDIYKQIRANKGLIVLGEVPPPEHTTDLFLPLSSEVKTDHGTDKLIESVSQPLENHGAPIIGHISESLSTKSCGALRPVNGVINTLQPVLADHIPGDSSDAEEQLHKKQRLNLVSSSSDGTCVAARTRPVLSCKKRRLVRPNSIVPLSKKVHRNSTIRPGCDVNPSCALCGSGSINTMPPEIHYEAPLLERLSQLDSCVHPVLAFPDDVPTSLHFQSMLKSQWQNKPFDKIKPPKKLSLKHRAPMPGSLPDSARKDRHKLVSSFLTTAKLSHHQTRPDRTHRQHLDDVGAVPMVERVTAPKAERLLNPPPPVHDPNHSKMRLRDHSSERSEVLKHHTDMSSSSYLAATHHPPHSPLVRQLSTSSDSPAPASSSSQVTASTSQQPVRRRRGESSFDINNIVIPMSVAATTRVEKLQYKEILTPSWREVDLQSLKGSPDEENEEIEDLSDAAFAALHAKCEEMERARWLWTTSVPPQRRGSRSYRSSDGRTTPQLGSANPSTPQPASPDVSSSHSLSEYSHGQSPRSPISPELHSAPLTPVARDTPRHLASEDTRCSTPELGLDEQSVQPWERRTFPLAHSPQAECEDQLDAQERAARCTRRTSGSKTGRETEAAPTSPPIVPLKSRHLVAAATAQRPTHR
partner: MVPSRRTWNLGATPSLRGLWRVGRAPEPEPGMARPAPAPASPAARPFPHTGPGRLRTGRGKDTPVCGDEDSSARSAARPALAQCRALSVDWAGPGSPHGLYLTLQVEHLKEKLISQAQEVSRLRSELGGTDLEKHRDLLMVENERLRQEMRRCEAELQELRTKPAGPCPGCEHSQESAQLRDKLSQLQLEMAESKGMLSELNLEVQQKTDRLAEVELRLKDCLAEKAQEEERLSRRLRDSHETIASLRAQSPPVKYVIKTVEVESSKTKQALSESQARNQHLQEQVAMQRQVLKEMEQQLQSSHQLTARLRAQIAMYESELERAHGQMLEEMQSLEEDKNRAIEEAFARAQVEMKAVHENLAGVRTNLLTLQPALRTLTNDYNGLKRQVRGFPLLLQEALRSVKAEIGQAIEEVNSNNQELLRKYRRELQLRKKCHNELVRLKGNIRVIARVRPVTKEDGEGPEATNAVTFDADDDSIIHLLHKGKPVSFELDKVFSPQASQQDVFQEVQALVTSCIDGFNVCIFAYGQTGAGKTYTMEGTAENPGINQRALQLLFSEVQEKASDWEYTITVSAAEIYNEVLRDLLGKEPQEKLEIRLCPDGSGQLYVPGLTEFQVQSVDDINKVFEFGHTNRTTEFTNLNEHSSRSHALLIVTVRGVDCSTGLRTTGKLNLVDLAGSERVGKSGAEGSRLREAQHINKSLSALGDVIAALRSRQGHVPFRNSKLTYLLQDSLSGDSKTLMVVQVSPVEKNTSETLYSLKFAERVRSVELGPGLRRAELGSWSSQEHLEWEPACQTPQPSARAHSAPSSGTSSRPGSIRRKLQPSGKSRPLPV
B2: Calcium-binding and coiled-coil domain-containing protein 2 (Homo sapiens), Q13137 (parent)
chain: MEETIKDPPTSAVLLDHCHFSQVIFNSVEKFYIPGGDVTCHYTFTQHFIPRRKDWIGIFRVGWKTTREYYTFMWVTLPIDLNNKSAKQQEVQFKAYYLPKDDEYYQFCYVDEDGVVRGASIPFQFRPENEEDILVVTTQGEVEEIEQHNKELCKENQELKDSCISLQKQNSDMQAELQKKQEELETLQSINKKLELKVKEQKDYWETELLQLKEQNQKMSSENEKMGIRVDQLQAQLSTQEKEMEKLVQGDQDKTEQLEQLKKENDHLFLSLTEQRKDQKKLEQTVEQMKQNETTAMKKQQELMDENFDLSKRLSENEIICNALQRQKERLEGENDLLKRENSRLLSYMGLDFNSLPYQVPTSDEGGARQNPGLAYGNPYSGIQESSSPSPLSIKKCPICKADDICDHTLEQQQMQPLCFNCPICDKIFPATEKQIFEDHVFCHSL
partner: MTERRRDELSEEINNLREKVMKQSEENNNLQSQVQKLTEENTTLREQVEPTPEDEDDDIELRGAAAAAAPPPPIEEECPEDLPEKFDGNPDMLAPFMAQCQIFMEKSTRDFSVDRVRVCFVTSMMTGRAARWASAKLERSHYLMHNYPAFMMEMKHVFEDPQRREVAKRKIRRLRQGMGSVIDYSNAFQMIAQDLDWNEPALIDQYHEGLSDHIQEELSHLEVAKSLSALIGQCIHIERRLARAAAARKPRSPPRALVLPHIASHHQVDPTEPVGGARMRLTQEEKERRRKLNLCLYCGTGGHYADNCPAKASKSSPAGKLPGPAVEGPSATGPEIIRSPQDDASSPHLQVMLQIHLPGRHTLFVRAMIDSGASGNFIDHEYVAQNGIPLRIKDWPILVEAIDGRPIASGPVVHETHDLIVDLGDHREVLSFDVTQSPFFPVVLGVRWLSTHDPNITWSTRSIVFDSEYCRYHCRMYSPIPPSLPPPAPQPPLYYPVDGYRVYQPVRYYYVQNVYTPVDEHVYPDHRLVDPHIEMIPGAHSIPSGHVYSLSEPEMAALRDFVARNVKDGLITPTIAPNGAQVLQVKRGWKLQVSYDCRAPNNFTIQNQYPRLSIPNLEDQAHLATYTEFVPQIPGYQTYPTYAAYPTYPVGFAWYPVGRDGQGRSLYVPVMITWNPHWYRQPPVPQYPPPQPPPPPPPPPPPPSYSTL
B3: Nucleoside diphosphate kinase homolog 5 (Homo sapiens), P56597 (parent)
chain: MEISMPPPQIYVEKTLAIIKPDIVDKEEEIQDIILRSGFTIVQRRKLRLSPEQCSNFYVEKYGKMFFPNLTAYMSSGPLVAMILARHKAISYWLELLGPNNSLVAKETHPDSLRAIYGTDDLRNALHGSNDFAAAEREIRFMFPEVIVEPIPIGQAAKDYLNLHIMPTLLEGLTELCKQKPADPLIWLADWLLKNNPNKPKLCHHPIVEEPY
B4: Ubiquitin thioesterase OTUB2 (Homo sapiens), Q96DC9 (parent)
chain: MSETSFNLISEKCDILSILRDHPENRIYRRKIEELSKRFTAIRKTKGDGNCFYRALGYSYLESLLGKSREIFKFKERVLQTPNDLLAAGFEEHKFRNFFNAFYSVVELVEKDGSVSSLLKVFNDQSASDHIVQFLRLLTSAFIRNRADFFRHFIDEEMDIKDFCTHEVEPMATECDHIQITALSQALSIALQVEYVDEMDTALNHHVFPEAATPSVYLLYKTSHYNILYAADKH
partner: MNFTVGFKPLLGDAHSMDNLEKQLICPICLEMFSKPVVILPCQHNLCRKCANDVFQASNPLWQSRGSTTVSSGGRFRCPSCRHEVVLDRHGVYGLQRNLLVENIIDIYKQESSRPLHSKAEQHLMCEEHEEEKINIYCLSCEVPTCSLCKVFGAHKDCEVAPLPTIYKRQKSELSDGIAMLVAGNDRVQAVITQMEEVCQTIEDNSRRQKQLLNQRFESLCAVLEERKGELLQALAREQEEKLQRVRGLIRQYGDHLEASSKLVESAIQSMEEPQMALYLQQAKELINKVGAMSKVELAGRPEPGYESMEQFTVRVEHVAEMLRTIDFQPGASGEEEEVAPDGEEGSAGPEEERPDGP
B5: Charged multivesicular body protein 7 (Homo sapiens), Q8WUX9 (parent)
chain: MWSPEREAEAPAGGDPAGLLPPEWEEDEERMSFLFSAFKRSREVNSTDWDSKMGFWAPLVLSHSRRQGVVRLRLRDLQEAFQRKGSVPLGLATVLQDLLRRGELQRESDFMASVDSSWISWGVGVFLLKPLKWTLSNMLGDNKVPAEEVLVAVELLKEKAEEVYRLYQNSPLSSHPVVALSELSTLCANSCPDERTFYLVLLQLQKEKRVTVLEQNGEKIVKFARGPRAKVSPVNDVDVGVYQLMQSEQLLSRKVESLSQEAERCKEEARRACRAGKKQLALRSLKAKQRTEKRIEALHAKLDTVQGILDRIYASQTDQMVFNAYQAGVGALKLSMKDVTVEKAESLVDQIQELCDTQDEVSQTLAGGVTNGLDFDSEELEKELDILLQDTTKEPLDLPDNPRNRHFTNSVPNPRISDAELEAELEKLSLSEGGLVPSSKSPKRQLEPTLKPL
partner: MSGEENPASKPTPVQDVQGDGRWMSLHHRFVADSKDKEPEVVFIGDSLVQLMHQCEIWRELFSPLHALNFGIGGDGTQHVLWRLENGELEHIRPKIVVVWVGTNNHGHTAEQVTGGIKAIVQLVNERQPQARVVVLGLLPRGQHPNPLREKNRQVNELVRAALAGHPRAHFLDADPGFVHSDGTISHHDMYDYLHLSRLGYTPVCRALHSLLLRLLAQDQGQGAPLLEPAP
B6: Microtubule-associated tumor suppressor candidate 2 (Homo sapiens), Q5JR59-3 (parent)
chain: MGHCCCKPYNCLQCLDKTNESALVKEKELSIELANIRDEVAFHTAKCEKLQKEKEELERRFEDEVKRLGWQQQAELQELEERLQLQFEAEMARLQEEHGDQLLSIRCQHQEQVEDLTASHDAALLEMENNHTVAITILQDDHDHKVQELMSTHELEKKELEENFEKLRLSLQDQVDTLTFQSQSLRDRARRFEEALRKNTEEQLEIALAPYQHLEEDMKSLKQVLEMKNQQIHEQEKKILELEKLAEKNIILEEKIQVLQQQNEDLKARIDQNTVVTRQLSEENANLQEYVEKETQEKKRLSRTNEELLWKLQTGDPTSPIKLSPTSPVYRGSSSGPSSPARVSTTPR
partner: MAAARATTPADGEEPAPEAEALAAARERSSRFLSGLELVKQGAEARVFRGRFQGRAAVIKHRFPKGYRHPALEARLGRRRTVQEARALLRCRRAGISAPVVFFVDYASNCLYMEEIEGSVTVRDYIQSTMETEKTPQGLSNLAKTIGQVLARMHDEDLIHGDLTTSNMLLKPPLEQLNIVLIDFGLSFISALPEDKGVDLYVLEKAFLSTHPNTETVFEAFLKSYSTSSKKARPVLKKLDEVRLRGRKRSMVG

In the first assay the parent is B1. To be noted: with kifc3_human KIFC3, Q9BVG8.
For K104T, the “effect of a mutation on the interaction” value is given as “disrupting interaction strength”.

In a further assay the parent is B2. To be noted: with peg10_human PEG10, Q86TG7.
Take P389A: the “effect of a mutation on the interaction” value is reported as “with no effect”.

Consider T273A, for which the “effect of a mutation on the interaction” value is listed as “with no effect”.

In another assay the parent is B3. The note with it: with dydc1_human DYDC1, Q8WWB3.
Chain of dydc1_human DYDC1, Q8WWB3 (Q8WWB3 whole entry): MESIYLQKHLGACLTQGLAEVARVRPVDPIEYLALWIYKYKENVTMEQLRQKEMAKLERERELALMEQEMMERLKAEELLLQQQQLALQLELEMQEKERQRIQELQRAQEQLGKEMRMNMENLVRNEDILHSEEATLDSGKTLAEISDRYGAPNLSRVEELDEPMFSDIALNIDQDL
As for N198D, the “effect of a mutation on the interaction” value is reported as “with no effect”.

Consider I165M, for which the “effect of a mutation on the interaction” value was “with no effect”.

Turning to S50N, the “effect of a mutation on the interaction” value is on record as “with no effect”.

As for L103F, the “effect of a mutation on the interaction” value is on record as “with no effect”.

Another assay covers variants of B4. The note with it: with tri54_human TRIM54, Q9BYV2.
Turning to R146P, the “effect of a mutation on the interaction” value is on record as “disrupting interaction strength”.

For V78I, the “effect of a mutation on the interaction” value was “with no effect”.

Variants of B5 are the subject of the next assay. To be noted: with pa1b3_human PAFAH1B3, Q15102.
In the case of R228C, the “effect of a mutation on the interaction” value is “with no effect”.

The variants in another assay derive from B6. To be noted: with prpk_human TP53RK.
With A89V, the “effect of a mutation on the interaction” value is reported as “with no effect”.
